# Results taken from patent US8852954.
# Molecular target: mouse IgG1 (subtype 1 IgG antibody) (Mus musculus) (UniProt P01868)
# Test: SPR
# Conditions: RNA with 5'-dA5 (1-5)
sequence,measurement,setting,value
AAAAAGCUGAAGAGAAGACGGAAGGAGACGAAGCT [MIG-m035],Kd,"LNA at G6 C7 G33 C34, 3'-dT35, BIACORE 3000, 1:1 Langmuir",< 0.001 nM
AAAAAGCGCUGAAGAGAAGACGGAAGGAGACGAAGCGC [MIG-m040],Kd,"2'-OMe U10, BIACORE 3000, 1:1 Langmuir",0.411 nM
AAAAAGCGCUGAAGAGAAGACGGAAGGAGACGAAGCGC [MIG-m036],Kd,"DNA at G6 C7 G37 C38, BIACORE 3000, 1:1 Langmuir",5.48 nM
AAAAAGCGCUGAAGAGAAGACGGAAGGAGACGAAGCGC [MIG-m037],Kd,"DNA at 6-9 and 35-38, BIACORE 3000, 1:1 Langmuir",1.7 nM
AAAAACGCUGAAGAGAAGACGGAAGGAGACGAAGCGT [MIG-m034],Kd,"LNA at C6 G7 C35 G36, 3'-dT37, BIACORE 3000, 1:1 Langmuir",< 0.001 nM
same,Kd,"LNA at C6 G7 C35 G36, 3'-dT37, second measurement (Example 3), differs from Table 2",0.634 nM
AAAAAGCGCUGAAGAGAAGACGGAAGGAGACGAAGCGC [MIG-m041],Kd,"DNA at 6-9 and 35-38, 2'-OMe U10, BIACORE 3000, 1:1 Langmuir",< 0.001 nM
AAAAACGCUGAAGAGAAGACGGAAGGAGACGAAGCGT [MIG-m042],Kd,"LNA at C6 G7 C35 G36, 2'-OMe U9, 3'-dT37, BIACORE 3000, 1:1 Langmuir",< 0.001 nM
